Results from patent publication US20140187615, “THERAPEUTIC POLYNUCLEOTIDES, COMPOSITIONS, AND METHODS” (Regents of the University of Minnesota, published 2014).

Experiments:
[1] = target: T1, phospholamban (PLN), pentameric (UniProt P61015); experiment: FP; conditions: ACE Kd 0.5 ± 0.1 nM; also gel shift (FIG. 1C); MOPS, 0.1% C12E8, 1 mM MgCl2, 5 mM CaCl2, pH 7.0
T1 sequence: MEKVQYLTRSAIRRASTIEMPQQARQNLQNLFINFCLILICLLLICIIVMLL

[2] = target: T2, phospholamban (PLN), pentameric (UniProt P61015 P61015:1-52); experiment: FP; ACE Kd 24 ± 5 nM; MOPS, 0.1% C12E8, 1 mM MgCl2, 5 mM CaCl2, pH 7.0; conditions: chain copies: 5 (stated pentameric); label: 5'-FAM
T2 sequence: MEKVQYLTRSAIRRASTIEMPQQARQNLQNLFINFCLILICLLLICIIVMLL

[3] = target: T2, phospholamban (PLN), pentameric; experiment: FP; ACE Kd 6.5 ± 0.9 nM; MOPS, 0.1% C12E8, 1 mM MgCl2, 5 mM CaCl2, pH 7.0; conditions: chain copies: 5 (stated pentameric); label: 5'-FAM
[4] = target: T2, phospholamban (PLN), pentameric; experiment: FP; ACE Kd 80 ± 40 nM; MOPS, 0.1% C12E8, 1 mM MgCl2, 5 mM CaCl2, pH 7.0; conditions: chain copies: 5 (stated pentameric); label: 5'-FAM
[5] = target: T2, phospholamban (PLN), pentameric; experiment: FP; ACE Kd 260 ± 180 nM; MOPS, 0.1% C12E8, 1 mM MgCl2, 5 mM CaCl2, pH 7.0; conditions: chain copies: 5 (stated pentameric); label: 5'-FAM
[6] = target: T2, phospholamban (PLN), pentameric; experiment: FP; ACE Kd 1.2 ± 0.4 nM; MOPS, 0.1% C12E8, 1 mM MgCl2, 5 mM CaCl2, pH 7.0; conditions: chain copies: 5 (stated pentameric); label: 5'-FAM

NNNNNNNNNNNNNNNNNNNNNNNNNNNNNNNNNNNNNNNNNNNNNNNNNNNNNNNNNNNNNNNNNNNNNNNNNNNNNNNN [ssDNA random 80-mer]
Kd [1]: 3.1 nM

ACTGAGCATGGGATAACCGTTCTCAGACTT (ssDNA) [ssDNA 30-mer]
Kd [2]: 21 nM

AGCAGCACAGAGGTCAGATG (ssDNA) [ssDNA 20-mer]
Kd [3]: 1.8 nM

AGTGATAGCTATGGT (ssDNA) [ssDNA 15-mer]
Kd [4]: 3.1 nM

ATAGCTTGCA (ssDNA) [ssDNA 10-mer]
Kd [5]: 35 nM

AGCAGCACAGAGGTCAGATGCAGGTAGGGTCCTATGCGTGCTACCGTGAA (ssDNA) [ssDNA 50-mer]
Kd [6]: 5 nM
